Laboratory results reported in PMC9482650, “Quantitative fragmentomics allow affinity mapping of interactomes” (Nature Communications, 2022).

Tests used:
Experiment in all cases: holdup assay
Design in all cases: key: below the threshold = too weak to quantify, mostly under pKd 3.1 to 4
APBA1_1, Q02410 = target: T1, APBA1_1, Q02410
T1 sequence (Q02410 651-752, limits assumed, looked up): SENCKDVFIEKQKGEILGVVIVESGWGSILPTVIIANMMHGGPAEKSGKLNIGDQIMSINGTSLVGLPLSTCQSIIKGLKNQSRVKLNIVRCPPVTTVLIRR

DLG1_2, Q12959 = target: DLG1_2, Q12959
DLG1_2, Q12959, sequence (Q12959 314-412): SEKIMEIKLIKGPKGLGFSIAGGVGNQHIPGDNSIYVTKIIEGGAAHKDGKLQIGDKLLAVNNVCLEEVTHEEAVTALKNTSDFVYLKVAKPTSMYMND

DLG3_1, Q92796 = target: T2, DLG3_1, Q92796
T2 sequence (Q92796 125-227, limits assumed, looked up): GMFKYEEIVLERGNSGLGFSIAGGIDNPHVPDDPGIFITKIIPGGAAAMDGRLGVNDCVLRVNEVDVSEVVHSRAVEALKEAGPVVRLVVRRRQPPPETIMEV

DLG3_2, Q92796 = target: T3, DLG3_2, Q92796
T3 sequence (Q92796 221-321, limits assumed, looked up): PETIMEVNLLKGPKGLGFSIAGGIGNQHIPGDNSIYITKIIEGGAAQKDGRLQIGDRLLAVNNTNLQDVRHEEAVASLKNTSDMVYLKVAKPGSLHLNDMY

FRMPD2_1, Q68DX3 = target: FRMPD2_1, Q68DX3
FRMPD2_1, Q68DX3, sequence (Q68DX3 770-861): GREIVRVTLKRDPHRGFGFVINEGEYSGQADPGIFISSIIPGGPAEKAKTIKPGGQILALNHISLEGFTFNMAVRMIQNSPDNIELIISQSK

FRMPD3, Q5JV73 = target: FRMPD3, Q5JV73
FRMPD3, Q5JV73, sequence (Q5JV73 12-100): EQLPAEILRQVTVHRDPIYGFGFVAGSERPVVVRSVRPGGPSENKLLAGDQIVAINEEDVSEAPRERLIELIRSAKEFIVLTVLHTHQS

GRIP1_5, Q9Y3R0 = target: T4, GRIP1_5, Q9Y3R0
T4 sequence (Q9Y3R0 568-668, limits assumed, looked up): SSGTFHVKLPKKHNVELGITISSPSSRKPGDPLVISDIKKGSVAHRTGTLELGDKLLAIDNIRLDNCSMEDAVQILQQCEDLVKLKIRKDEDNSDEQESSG

Inadl_1, Q8NI35 = target: Inadl_1, Q8NI35
Inadl_1, Q8NI35, sequence (Q8NI35 113-229): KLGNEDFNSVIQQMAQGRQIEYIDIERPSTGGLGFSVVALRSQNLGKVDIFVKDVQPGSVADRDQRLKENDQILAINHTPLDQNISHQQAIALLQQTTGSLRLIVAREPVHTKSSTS

Inadl_10, Q8NI35 = target: Inadl_10, Q8NI35
Inadl_10, Q8NI35, sequence (Q8NI35 1673-1763): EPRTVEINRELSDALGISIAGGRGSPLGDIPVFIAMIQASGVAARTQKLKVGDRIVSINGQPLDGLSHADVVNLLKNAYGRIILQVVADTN

LAP2, Q96RT1 = target: LAP2, Q96RT1
LAP2, Q96RT1, sequence (Q96RT1 other isoform, or with tags, fused parts or gaps): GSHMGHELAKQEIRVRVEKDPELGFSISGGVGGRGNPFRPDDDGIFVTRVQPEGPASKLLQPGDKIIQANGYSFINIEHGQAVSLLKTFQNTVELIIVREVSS

LIN7B, Q9HAP6 = target: T5, LIN7B, Q9HAP6
T5 sequence (Q9HAP6 88-185, limits assumed, looked up): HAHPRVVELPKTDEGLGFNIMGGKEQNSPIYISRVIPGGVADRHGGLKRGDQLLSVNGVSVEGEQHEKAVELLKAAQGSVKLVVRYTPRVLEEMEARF

MAGI2_6, Q86UL8 = target: MAGI2_6, Q86UL8
MAGI2_6, Q86UL8, sequence (Q86UL8 1141-1229): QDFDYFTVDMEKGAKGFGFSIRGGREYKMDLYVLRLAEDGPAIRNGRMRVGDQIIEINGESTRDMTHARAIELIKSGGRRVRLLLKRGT

MPDZ_10, O75970 = target: T6, MPDZ_10, O75970
T6 sequence (O75970 1624-1722, limits assumed, looked up): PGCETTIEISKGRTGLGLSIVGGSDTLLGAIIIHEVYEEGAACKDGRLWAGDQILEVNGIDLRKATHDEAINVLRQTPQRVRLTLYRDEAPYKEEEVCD

MPDZ_5, O75970 = target: T7, MPDZ_5, O75970
T7 sequence (O75970 695-796, limits assumed, looked up): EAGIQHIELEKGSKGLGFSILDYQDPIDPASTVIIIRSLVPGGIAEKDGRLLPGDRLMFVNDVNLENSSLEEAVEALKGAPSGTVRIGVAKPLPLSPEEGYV

NHERF2_2, Q15599 = target: NHERF2_2, Q15599
NHERF2_2, Q15599, sequence (Q15599 142-238): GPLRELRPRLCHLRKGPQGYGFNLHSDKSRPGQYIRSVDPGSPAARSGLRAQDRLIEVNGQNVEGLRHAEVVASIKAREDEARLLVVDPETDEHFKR

NHERF3_1, Q5T2W1 = target: T8, NHERF3_1, Q5T2W1
T8 sequence (Q5T2W1 4-100, limits assumed, looked up): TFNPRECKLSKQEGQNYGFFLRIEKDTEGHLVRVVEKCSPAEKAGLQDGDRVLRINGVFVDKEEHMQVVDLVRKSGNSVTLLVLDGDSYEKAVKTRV

NHERF3_4, Q5T2W1 = target: T9, NHERF3_4, Q5T2W1
T9 sequence (Q5T2W1 373-468, limits assumed, looked up): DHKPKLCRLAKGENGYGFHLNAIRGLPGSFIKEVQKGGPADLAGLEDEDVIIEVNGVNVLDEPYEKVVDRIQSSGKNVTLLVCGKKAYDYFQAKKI

NHERF4_1, Q86UT5-2 = target: NHERF4_1, Q86UT5-2
NHERF4_1, Q86UT5-2, sequence (Q86UT5 other isoform, or with tags, fused parts or gaps): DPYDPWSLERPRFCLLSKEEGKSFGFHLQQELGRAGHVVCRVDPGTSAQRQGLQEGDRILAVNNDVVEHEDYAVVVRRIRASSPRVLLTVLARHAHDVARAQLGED

NHERF4_4, Q86UT5 = target: NHERF4_4, Q86UT5
NHERF4_4, Q86UT5, sequence (Q86UT5 464-550): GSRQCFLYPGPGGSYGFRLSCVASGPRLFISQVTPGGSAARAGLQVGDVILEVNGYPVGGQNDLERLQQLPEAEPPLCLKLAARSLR

PDLIM1, O00151 = target: PDLIM1, O00151
PDLIM1, O00151, sequence (O00151 1-87): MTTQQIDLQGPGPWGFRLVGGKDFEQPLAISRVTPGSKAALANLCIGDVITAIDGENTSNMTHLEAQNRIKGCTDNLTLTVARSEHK

PDZD2_2, O15018 = target: T10, PDZD2_2, O15018
T10 sequence (O15018 329-429, limits assumed, looked up): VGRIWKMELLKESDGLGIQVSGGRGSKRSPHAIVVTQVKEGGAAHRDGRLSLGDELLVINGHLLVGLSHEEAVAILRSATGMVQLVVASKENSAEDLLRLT

PICK1, Q9NRD5 = target: PICK1, Q9NRD5
PICK1, Q9NRD5, sequence (Q9NRD5 17-115): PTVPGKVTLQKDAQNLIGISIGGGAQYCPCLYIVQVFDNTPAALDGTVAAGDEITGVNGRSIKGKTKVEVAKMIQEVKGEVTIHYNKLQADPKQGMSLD

PTPN3, P26045 = target: PTPN3, P26045
PTPN3, P26045, sequence (P26045 505-587): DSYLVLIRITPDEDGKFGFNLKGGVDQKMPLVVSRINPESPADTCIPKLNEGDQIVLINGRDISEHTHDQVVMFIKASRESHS

SIPA1L2, Q9P2F8 = target: T11, SIPA1L2, Q9P2F8
T11 sequence (Q9P2F8 945-1036, limits assumed, looked up): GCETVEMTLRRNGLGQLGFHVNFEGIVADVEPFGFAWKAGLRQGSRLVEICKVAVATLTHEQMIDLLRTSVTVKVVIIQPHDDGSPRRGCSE

SNX27, Q96L92 = target: SNX27, Q96L92
TJP1_3, Q07157 = target: TJP1_3, Q07157
TJP1_3, Q07157, sequence (Q07157 416-512): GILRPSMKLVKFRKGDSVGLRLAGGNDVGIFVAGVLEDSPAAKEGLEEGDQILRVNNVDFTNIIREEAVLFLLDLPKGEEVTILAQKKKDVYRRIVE

TJP2_1, Q9UDY2 = target: TJP2_1, Q9UDY2
TJP2_1, Q9UDY2, sequence (Q9UDY2 24-128): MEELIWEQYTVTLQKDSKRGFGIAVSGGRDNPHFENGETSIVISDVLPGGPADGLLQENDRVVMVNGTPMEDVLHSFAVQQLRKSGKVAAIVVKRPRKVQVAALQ

[1] = plain residues with an end cap or a label only (N-terminal biotin on a linker: ttds)
[2] = plain residues with an end cap or a label only (N-terminal biotin on a linker: ahx)

Measured: pKd

FVETQHQTQV [FAT3, Q8TDW7]
4.71: DLG3_2, Q92796; [1]
4.12: PTPN3, P26045; [1]
4.72: NHERF3_1, Q5T2W1; [1]
4.35: PDZD2_2, O15018; [1]
3.85: DLG3_1, Q92796; [1]
below the threshold: APBA1_1, Q02410; [1] | FRMPD2_1, Q68DX3; [1] | FRMPD3, Q5JV73; [1] | GRIP1_5, Q9Y3R0; [1] | Inadl_1, Q8NI35; [1] | LIN7B, Q9HAP6; [1] | MPDZ_10, O75970; [1] | MPDZ_5, O75970; [1] | NHERF2_2, Q15599; [1] | NHERF3_4, Q5T2W1; [1] | NHERF4_1, Q86UT5-2; [1] | NHERF4_4, Q86UT5; [1] | PDLIM1, O00151; [1] | PICK1, Q9NRD5; [1] | SIPA1L2, Q9P2F8; [1] | TJP1_3, Q07157; [1] | TJP2_1, Q9UDY2; [1]
4.53: SNX27, Q96L92; [1]
3.77: MAGI2_6, Q86UL8; [1]
4.95: DLG1_2, Q12959; [1]
3.5: Inadl_10, Q8NI35; [1]
3.65: LAP2, Q96RT1; [1]

SGGKRKETLV [NET1, Q7Z628]
4.61: DLG3_1, Q92796; [1]
5.43: DLG3_2, Q92796; [1]
3.81: LIN7B, Q9HAP6; [1]
4.35: NHERF3_1, Q5T2W1; [1]
below the threshold: APBA1_1, Q02410; [1] | FRMPD3, Q5JV73; [1] | GRIP1_5, Q9Y3R0; [1] | Inadl_1, Q8NI35; [1] | Inadl_10, Q8NI35; [1] | LAP2, Q96RT1; [1] | MPDZ_10, O75970; [1] | MPDZ_5, O75970; [1] | NHERF2_2, Q15599; [1] | NHERF3_4, Q5T2W1; [1] | NHERF4_1, Q86UT5-2; [1] | NHERF4_4, Q86UT5; [1] | PDLIM1, O00151; [1] | PICK1, Q9NRD5; [1] | SIPA1L2, Q9P2F8; [1] | TJP1_3, Q07157; [1]
4.25: PDZD2_2, O15018; [1]
3.8: TJP2_1, Q9UDY2; [1]
4.33: SNX27, Q96L92; [1]
4.66: PTPN3, P26045; [1]
5.78: DLG1_2, Q12959; [1]
3.54: MAGI2_6, Q86UL8; [1]
3.95: FRMPD2_1, Q68DX3; [1]

ADENEQVSAV [RAPGEF6, Q8TEU7]
4.19: MAGI2_6, Q86UL8; [2]
below the threshold: APBA1_1, Q02410; [2] | DLG3_1, Q92796; [2] | FRMPD2_1, Q68DX3; [2] | FRMPD3, Q5JV73; [2] | GRIP1_5, Q9Y3R0; [2] | Inadl_1, Q8NI35; [2] | Inadl_10, Q8NI35; [2] | LAP2, Q96RT1; [2] | LIN7B, Q9HAP6; [2] | MPDZ_10, O75970; [2] | MPDZ_5, O75970; [2] | NHERF2_2, Q15599; [2] | NHERF3_4, Q5T2W1; [2] | NHERF4_1, Q86UT5-2; [2] | NHERF4_4, Q86UT5; [2] | PDLIM1, O00151; [2] | PICK1, Q9NRD5; [2] | SIPA1L2, Q9P2F8; [2] | TJP1_3, Q07157; [2] | TJP2_1, Q9UDY2; [2]
5.5: PDZD2_2, O15018; [2]
3.53: NHERF3_1, Q5T2W1; [2]
4.3: PTPN3, P26045; [2]
4: DLG3_2, Q92796; [2]
5.07: SNX27, Q96L92; [2]
4.01: DLG1_2, Q12959; [2]

SRSRRRETAL [HPV33-E6, P06427]
5.49: NHERF3_1, Q5T2W1; [1]
4.01: TJP2_1, Q9UDY2; [1]
4.42: NHERF4_1, Q86UT5-2; [1]
3.72: LIN7B, Q9HAP6; [1]
3.54: FRMPD2_1, Q68DX3; [1]
5.14: DLG1_2, Q12959; [1]
4.91: SNX27, Q96L92; [1]
4.61: DLG3_2, Q92796; [1]
below the threshold: APBA1_1, Q02410; [1] | FRMPD3, Q5JV73; [1] | GRIP1_5, Q9Y3R0; [1] | Inadl_1, Q8NI35; [1] | Inadl_10, Q8NI35; [1] | LAP2, Q96RT1; [1] | MAGI2_6, Q86UL8; [1] | MPDZ_10, O75970; [1] | MPDZ_5, O75970; [1] | NHERF4_4, Q86UT5; [1] | PDLIM1, O00151; [1] | PDZD2_2, O15018; [1] | PICK1, Q9NRD5; [1] | SIPA1L2, Q9P2F8; [1] | TJP1_3, Q07157; [1]
3.97: NHERF2_2, Q15599; [1] | NHERF3_4, Q5T2W1; [1]
5.01: PTPN3, P26045; [1]
3.79: DLG3_1, Q92796; [1]

SAPATLSSRA [PDLIM2, Q96JY6]
below the threshold: APBA1_1, Q02410; [2] | DLG1_2, Q12959; [2] | DLG3_1, Q92796; [2] | DLG3_2, Q92796; [2] | FRMPD2_1, Q68DX3; [2] | FRMPD3, Q5JV73; [2] | GRIP1_5, Q9Y3R0; [2] | Inadl_1, Q8NI35; [2] | Inadl_10, Q8NI35; [2] | LAP2, Q96RT1; [2] | LIN7B, Q9HAP6; [2] | MAGI2_6, Q86UL8; [2] | MPDZ_5, O75970; [2] | NHERF2_2, Q15599; [2] | NHERF3_1, Q5T2W1; [2] | NHERF3_4, Q5T2W1; [2] | NHERF4_1, Q86UT5-2; [2] | NHERF4_4, Q86UT5; [2] | PDLIM1, O00151; [2] | PDZD2_2, O15018; [2] | PICK1, Q9NRD5; [2] | PTPN3, P26045; [2] | SIPA1L2, Q9P2F8; [2] | SNX27, Q96L92; [2] | TJP1_3, Q07157; [2] | TJP2_1, Q9UDY2; [2]
4: MPDZ_10, O75970; [2]
